From publication PMC8567202, “Phosphoinositide-binding activity of Smad2 is essential for its function in TGF-β signaling” (The Journal of Biological Chemistry, 2021)
“Also recorded” adds a separate entry of the source.

Tests used:
[1] = test system: TβRI GS region peptide (F-Ahx-YDMTTpSGpSGpSGLPLL); assay: Fluorescence anisotropy binding to TβRI GS peptide; conditions: fluorescence anisotropy; for Kd: 20 mM Tris, pH 7.9, 160 mM NaCl, 10-min incubation, average ±S.D., n = 3, read-out: Kd for peptide binding, GS peptide
Description: (§1) However, this tentative assignment has been confirmed neither by a high-resolution structure of the Smad2-TβRI complex nor by a quantitative and systematic binding study, leaving uncertainty about the exact nature of the Smad2-TβRI-binding interface. Since the L3 loop is a part of the newly identified PI(4,5)P2-binding site, we checked if these PI(4,5)P2-binding residues are also involved in the Smad2-TβRI interaction using two fluorescein-labeled synthetic peptides derived from the GS region (i.e., GS peptide: fluorescein-aminohexanoyl (F-Ahx)-YDMTTpSGpSGpSGLPLL) and the L45 loop (i.e., L45 peptide: F-Ahx-ADNKDNGT), respectively. In particular, the GS peptide represents the GS motif triply phosphorylated by TβRII. We then measured binding to Smad2 WT and mutants to these peptides by fluorescence anisotropy according to our established protocol ([21]). […] We thus primarily used the GS peptide to assess the effects of mutations on the Smad2-TβRI interaction. […] They also yielded distinct structural variants for further functional studies. Specifically, W422A and Y426A could serve as specific PI(4,5)P2 binding-compromised mutants and K420A as a predominantly TβRI binding-compromised mutant. R427A/R428A could also serve as a PI(4,5)P2 and TβRI binding-compromised mutant, whereas E425K as a PI(4,5)P2 and TβRI binding-enhanced mutant.
(§2) Figure 3 Affinity of Smad2 WT and mutants for TβRI-derived peptides determined by fluorescence anisotropy.A, binding of Smad2 WT (black), W422A (red), Y420A (cyan), R427A/R428A (green), K420A (blue), and E425K (orange) to the GS peptide (F-Ahx-YDMTTpSGpSGpSGLPLL). […] B, binding of Smad2 WT (black), W422A (red), Y420A (cyan), R427A/R428A (green), K420A (blue), and E425K (orange) to the L45 loop peptide (F-Ahx-DNKDNGT). C, effects of 50 μM POPC/POPS/PI(4,5)P2 (77:20:3) LUVs on binding of Smad2 to the GS peptide. The presence of vesicles (orange) raises the Kd value from 20 ± 6 to 60 ± 7 nM. The peptide concentration was fixed at 2.5 nM, and the Smad2 concentration was varied from 0 to 150 μM. The experimentally observed anisotropy (A) values were normalized (Anorm) using the equation: Anorm = (A − Amin)/(Amax − Amin) where Amax and Amin are maximal and minimal A values, respectively, for each measurement. The plots of Anormversus [Smad2] were analyzed by the nonlinear least-squares analysis using the equation: Anorm = 1/(1 + Kd/[Smad2]).
(§3) The fluorescein-6-aminohexanoyl (F-Ahx)-labeled TβRI GS region peptide (F-Ahx-YDMTTpSGpSGpSGLPLL) was dissolved in dimethyl sulfoxide to yield 1 mg/ml stock solution, F-Ahx-labeled TβRI L45 loop region peptide (F-Ahx-ADNKDNGT) was dissolved in a 3:1 mixture of water and acetonitrile to yield 2.5 mg/ml stock solution. Both peptide solutions were diluted to 1 to 10 μM with 20 mM Tris buffer, pH 7.9, containing 160 mM NaCl for binding studies. In total, 300 μl of the Smad2 (WT or mutant) solution (0–250 μM) was added to a series of 1.5 ml microcentrifuge containing the peptide solution (2.5 μM). After 10-min incubation in the dark, the mixture was transferred to a quartz cuvette with 2-mm path length and fluorescence anisotropy (r) was measured with excitation and emission wavelengths set at 485 and 535 nm, respectively, using Horiba Flurolog-3 spectrofluorometer. Since Po >> Pepo under our conditions, the Kd for the Smad2-peptide binding was determined by the nonlinear least-squares analysis of the binding isotherm using the Equation 1:(1) Pepbound/Pep0=Δr/Δrmax=1/1+kd/P0 where Pepbound, Pep0, and P0 indicate the concentration of bound peptide, total peptide, and total Smad2, respectively, and Δr and Δrmax are the anisotropy change for each P0 and the maximal Δr, respectively.

[2] = test system: HeLa cells; assay: Nuclear translocation of EGFP-Smad2; type: cell-based; conditions: HeLa cells with endogenous Smad2 suppressed, 10 ng/ml TGF-β for 1 h
Protocol: Two separate gels were used to accommodate all mutants. An empty vector transfection (vehicle) was used for a negative control for each gel. Glyceraldehyde 3-phosphate dehydrogenase (GAPDH) was used as a gel loading control. Data in A and B are quantified in Fig. S3A. C, TGF-β stimulated (10 ng/ml for 1 h) nuclear translocation of mouse EGFP-WT, -K420A, -W422A, -E425K, -Y426A, and -R427A/R428A transfected into HeLa cells whose endogenous Smad2 was suppressed by siRNA. For Smad2-WT, the effect of PI(4,5)P2 depletion was measured. Arrows indicate nuclear accumulation of EGFP-WT and EGFP-E425K. Scale bars indicate 10 μm. D, quantification of (C). (Inuc/Icyto) was calculated from total nuclear and cytosolic fluorescence intensity values. Blank and black bars indicate values before and after TGF-β stimulation. Error bars indicate S.D. values from >3 measurements (n = 10). E, Smad2 transcriptional activity measured by the luciferase assay. Blank and black bars indicate values before and after TGF-β stimulation. Error bars indicate S.D. values from >3 measurements (n = 10).
The ratio of nuclear to cytoplasmic protein was calculated from the fluorescence intensity of nucleus (Inuc) and the cytoplasm (Fcyto) in cross-section images of cells using the line profile function of Image-Pro Plus software (Media Cybernetics). Briefly, at least five different lines were drawn across the cross-sectional image of each cell and the average Inuc and ICyto values were calculated along the lines. Typically, more than ten cell images were analyzed for each data set to determine the average and SD values.

[3] = test system: TβRI L45 loop region peptide (F-Ahx-ADNKDNGT); assay: Fluorescence anisotropy binding to TβRI L45 peptide; conditions: for Kd: 20 mM Tris, pH 7.9, 160 mM NaCl, 10-min incubation, average ±S.D., n = 3
Description: as §1, §2, §3

| Molecule | GS peptide affinity relative to WT [1] | Kd [1] | nuclear transport after TGF-β stimulation [2] | L45 peptide affinity relative to WT [3] | Kd [3] | GS peptide affinity relative to WT ([1]; listed as Y420A) |
| --- | --- | --- | --- | --- | --- | --- |
| Smad2-W422A: W422A mutant of full-length Smad2; specific PI(4,5)P2 binding-compromised (protein, left off: His6, N-terminal, state not stated) MSSILPFTPPVVKRLLGWKKSAGGSGGAGGGEQNGQEEKWCEKAVKSLVKKLKKTGRLDELEKAITTQNCNTKCVTIPSTCSEIWGLSTANTVDQWDTTGLYSFSEQTRSLDGRLQVSHRKGLPHVIYCRLWRWPDLHSHHELKAIENCEYAFNLKKDEVCVNPYHYQRVETPVLPPVLVPRHTEILTELPPLDDYTHSIPENTNFPAGIEPQSNYIPETPPPGYISEDGETSDQQLNQSMDTGSPAELSPTTLSPVNHSLDLQPVTYSEPAFWCSIAYYELNQRVGETFHASQPSLTVDGFTDPSNSERFCLGLLSNVNRNATVEMTRRHIGRGVRLYYIGGEVFAECLSDSAIFVQSPNCNQRYGWHPATVCKIPPGCNLKIFNNQEFAALLAQSVNQGFEAVYQLTRMCTIRMSFVKGAGAEYRRQTVTSTPCWIELHLNGPLQWLDKVLTQMGSPSVRCSSMS | essentially the same affinity as the WT; also recorded: essentially identical binding curves | 21 ± 5 µM | did not show nuclear transport | WT-like affinity | 67 ± 6 µM | – |
| Smad2- R427A/R428A: double mutant of full-length Smad2; PI(4,5)P2 and TβRI binding-compromised (protein, left off: His6, N-terminal, state not stated) MSSILPFTPPVVKRLLGWKKSAGGSGGAGGGEQNGQEEKWCEKAVKSLVKKLKKTGRLDELEKAITTQNCNTKCVTIPSTCSEIWGLSTANTVDQWDTTGLYSFSEQTRSLDGRLQVSHRKGLPHVIYCRLWRWPDLHSHHELKAIENCEYAFNLKKDEVCVNPYHYQRVETPVLPPVLVPRHTEILTELPPLDDYTHSIPENTNFPAGIEPQSNYIPETPPPGYISEDGETSDQQLNQSMDTGSPAELSPTTLSPVNHSLDLQPVTYSEPAFWCSIAYYELNQRVGETFHASQPSLTVDGFTDPSNSERFCLGLLSNVNRNATVEMTRRHIGRGVRLYYIGGEVFAECLSDSAIFVQSPNCNQRYGWHPATVCKIPPGCNLKIFNNQEFAALLAQSVNQGFEAVYQLTRMCTIRMSFVKGWGAEYAAQTVTSTPCWIELHLNGPLQWLDKVLTQMGSPSVRCSSMS | twofold lower affinity than the WT | 44 ± 4 µM | did not show nuclear transport | slightly lower affinity | 75 ± 11 µM | – |
| Smad2-Y426A: Y426A mutant of full-length Smad2; specific PI(4,5)P2 binding-compromised (protein, left off: His6, N-terminal, state not stated) MSSILPFTPPVVKRLLGWKKSAGGSGGAGGGEQNGQEEKWCEKAVKSLVKKLKKTGRLDELEKAITTQNCNTKCVTIPSTCSEIWGLSTANTVDQWDTTGLYSFSEQTRSLDGRLQVSHRKGLPHVIYCRLWRWPDLHSHHELKAIENCEYAFNLKKDEVCVNPYHYQRVETPVLPPVLVPRHTEILTELPPLDDYTHSIPENTNFPAGIEPQSNYIPETPPPGYISEDGETSDQQLNQSMDTGSPAELSPTTLSPVNHSLDLQPVTYSEPAFWCSIAYYELNQRVGETFHASQPSLTVDGFTDPSNSERFCLGLLSNVNRNATVEMTRRHIGRGVRLYYIGGEVFAECLSDSAIFVQSPNCNQRYGWHPATVCKIPPGCNLKIFNNQEFAALLAQSVNQGFEAVYQLTRMCTIRMSFVKGWGAEARRQTVTSTPCWIELHLNGPLQWLDKVLTQMGSPSVRCSSMS | essentially the same affinity as the WT | 20 ± 3 µM | did not show nuclear transport | WT-like affinity | 70 ± 7 µM | essentially identical binding curves |
| Smad2-K420A: K420A mutant of full-length Smad2; predominantly TβRI binding-compromised (protein, left off: His6, N-terminal, state not stated) MSSILPFTPPVVKRLLGWKKSAGGSGGAGGGEQNGQEEKWCEKAVKSLVKKLKKTGRLDELEKAITTQNCNTKCVTIPSTCSEIWGLSTANTVDQWDTTGLYSFSEQTRSLDGRLQVSHRKGLPHVIYCRLWRWPDLHSHHELKAIENCEYAFNLKKDEVCVNPYHYQRVETPVLPPVLVPRHTEILTELPPLDDYTHSIPENTNFPAGIEPQSNYIPETPPPGYISEDGETSDQQLNQSMDTGSPAELSPTTLSPVNHSLDLQPVTYSEPAFWCSIAYYELNQRVGETFHASQPSLTVDGFTDPSNSERFCLGLLSNVNRNATVEMTRRHIGRGVRLYYIGGEVFAECLSDSAIFVQSPNCNQRYGWHPATVCKIPPGCNLKIFNNQEFAALLAQSVNQGFEAVYQLTRMCTIRMSFVAGWGAEYRRQTVTSTPCWIELHLNGPLQWLDKVLTQMGSPSVRCSSMS | tenfold decrease; also recorded: tenfold lower affinity than the WT | 200 ± 48 µM | did not show nuclear transport | lowest affinity | 100 ± 16 µM | – |
| EGFP-Smad2 WT: mouse EGFP-Smad2 wild type transfected into HeLa cells (protein, UniProt Q62432 2-467, looked up, EGFP fusion, mouse EGFP-Smad2 wild type transfected into HeLa cells) Mothers against …: SSILPFTPPVVKRLLGWKKSAGGSGGAGGGEQNGQEEKWCEKAVKSLVKKLKKTGRLDELEKAITTQNCNTKCVTIPSTCSEIWGLSTANTVDQWDTTGLYSFSEQTRSLDGRLQVSHRKGLPHVIYCRLWRWPDLHSHHELKAIENCEYAFNLKKDEVCVNPYHYQRVETPVLPPVLVPRHTEILTELPPLDDYTHSIPENTNFPAGIEPQSNYIPETPPPGYISEDGETSDQQLNQSMDTGSPAELSPTTLSPVNHSLDLQPVTYSEPAFWCSIAYYELNQRVGETFHASQPSLTVDGFTDPSNSERFCLGLLSNVNRNATVEMTRRHIGRGVRLYYIGGEVFAECLSDSAIFVQSPNCNQRYGWHPATVCKIPPGCNLKIFNNQEFAALLAQSVNQGFEAVYQLTRMCTIRMSFVKGWGAEYRRQTVTSTPCWIELHLNGPLQWLDKVLTQMGSPSVRCSSMS | – | – | moved from the cytoplasm to the nucleus | – | – | – |
